Test results reported in patent US9388213B2, “Polycomb repressive complex 2 (PRC2) inhibitors and uses thereof” (The Rockefeller University, priority 2012, dated 2016).

Legend:
PRC2 [1] = target: T1, PRC2 (Homo sapiens, UniProt Q15910); experiment: kinetic studies of PRC2 methyltransferase assays with varying mononucleosome substrate concentrations; format: biochemical; settings: initial velocity versus nucleosome substrate concentration
T1 construct: Mono Q fractions containing stoichiometric components of PRC2 were pooled; made in house; FLAG-M2 immunoprecipitation from nuclear extract, then Mono Q
Protocol: Purified PRC2, peptides, and chromatin substrates were added to reaction buffer (50 mM HEPES, pH 7.9, 0.5 mM DTT, 0.4 mM PMSF). Labeled S-adenosyl-methionine (3H-SAM) was added to reactions (225 μM), followed by incubation at 30° C. The reactions were stopped by binding to P81 filter paper (GE Health) for scintillitation counting, or the addition of SDS-PAGE for autoradiography.

PRC2 [2] = target: T1, PRC2; experiment: in vitro PRC2 histone methyltransferase reactions with H3 peptides added in trans; format: biochemical; settings: for effect on PRC2 activity relative to the no peptide control: H3 peptides (18-37) in trans, purified wildtype mononucleosomes (FIG. 3A)
Protocol: Human EED protein containing an N-terminal FLAG-epitope was cloned in pCDH-EF1alpha-IRES-Puro (System Biosciences). Resulting lentivirus were used to establish stable 293T and Hela cell lines that express FLAG-hEED. Nuclear extracts were prepared from washed cell pellets as previously described (Lewis et al., “Daxx is an H3.3-specific Histone Chaperone and Cooperates with ATRX in Replication-Independent Chromatin Assembly at Telomeres,” Proc Natl Acad Sci USA 107: 14075-14080 (2010), which is hereby incorporated by reference in its entirety). FLAG-M2 immunoprecipitation of clarified nuclear extract was performed, followed by washing (250 mM KCl) and elution with 3XFLAG peptide (400 ng/μL). Eluate from the FLAG M2 beads was loaded onto a Mono Q ion exchange column. Mono Q fractions containing stoichiometric components of PRC2 were pooled. HEK293T cells expressing epitope-tagged Histone H3 were hypotonically lysed. Washed nuclei were resuspended in micrococcal nuclease digestion buffer (20 mM HEPES, pH 7.9, 30 mM KCl, 2 mM CaCl2, 0.4 mM PMSF, 3× Protease Inhibitor Cocktail (Roche). Micrococcal nuclease (Worthingtons, 15 U/μL) was added to nuclei, followed by incubation at 30° C. for 5-30 minutes. Reactions were returned to ice, followed by addition of 3 mM EDTA, 3 mM EGTA, 120 mM NaCl, 0.1% Triton. Nuclei were dounced (Wheaton A×10), followed by centrifugation 15K rpm in SS34. FLAG M2 beads were incubated with clarified supernatant at 4° C. Washed beads (150 mM KCl) were eluted with 3× FLAG peptide ([…]). DNA from M2 FLAG eluate fractions was resolved by gel electrophoresis for estimation of chromatin lengths. Fractions of similar chromatin (DNA) lengths were pooled and dialyzed (20 mM HEPES, pH 7.9, 10 mM KCl, 10% Glycerol, 0.4 mM PMSF, 0.5 mM DTT). Purified PRC2, peptides, and chromatin substrates were added to reaction buffer (50 mM HEPES, pH 7.9, 0.5 mM DTT, 0.4 mM PMSF). Labeled S-adenosyl-methionine (3H-SAM) was added to reactions (225 μM), followed by incubation at 30° C. The reactions were stopped by binding to P81 filter paper (GE Health) for scintillitation counting, or the addition of SDS-PAGE for autoradiography.

T1 sequence (Q15910 whole entry): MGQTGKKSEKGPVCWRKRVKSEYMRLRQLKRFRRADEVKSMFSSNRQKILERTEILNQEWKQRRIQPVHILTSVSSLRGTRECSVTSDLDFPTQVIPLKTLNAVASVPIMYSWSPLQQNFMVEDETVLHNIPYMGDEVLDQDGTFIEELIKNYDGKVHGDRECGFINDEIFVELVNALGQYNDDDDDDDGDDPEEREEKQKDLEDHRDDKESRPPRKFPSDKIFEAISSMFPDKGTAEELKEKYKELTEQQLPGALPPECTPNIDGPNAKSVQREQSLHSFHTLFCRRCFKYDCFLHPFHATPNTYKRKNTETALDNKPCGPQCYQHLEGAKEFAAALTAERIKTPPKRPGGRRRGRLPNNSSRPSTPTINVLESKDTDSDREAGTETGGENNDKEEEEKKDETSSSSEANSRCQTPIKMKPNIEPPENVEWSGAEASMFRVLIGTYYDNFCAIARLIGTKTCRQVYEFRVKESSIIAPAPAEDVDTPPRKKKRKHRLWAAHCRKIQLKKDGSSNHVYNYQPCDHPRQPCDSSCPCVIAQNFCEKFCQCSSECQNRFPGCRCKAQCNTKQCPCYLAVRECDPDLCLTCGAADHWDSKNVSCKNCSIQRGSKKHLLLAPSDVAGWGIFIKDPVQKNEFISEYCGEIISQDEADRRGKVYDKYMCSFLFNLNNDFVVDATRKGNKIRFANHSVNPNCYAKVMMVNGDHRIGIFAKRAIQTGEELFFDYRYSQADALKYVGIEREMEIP
T1 sequence (O75530 whole entry partner): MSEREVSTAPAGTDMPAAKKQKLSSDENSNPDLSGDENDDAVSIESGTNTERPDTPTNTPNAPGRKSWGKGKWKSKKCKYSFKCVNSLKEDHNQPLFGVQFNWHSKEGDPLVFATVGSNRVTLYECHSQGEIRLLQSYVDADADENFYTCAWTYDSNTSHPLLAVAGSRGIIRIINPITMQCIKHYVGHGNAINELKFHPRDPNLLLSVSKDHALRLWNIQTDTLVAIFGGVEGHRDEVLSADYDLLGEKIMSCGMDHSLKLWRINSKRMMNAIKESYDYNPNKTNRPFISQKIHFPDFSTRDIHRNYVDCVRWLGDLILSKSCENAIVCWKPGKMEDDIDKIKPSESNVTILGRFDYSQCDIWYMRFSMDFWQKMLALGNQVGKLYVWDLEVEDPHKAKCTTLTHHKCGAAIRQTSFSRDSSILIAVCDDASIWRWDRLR
T1 sequence (Q15022 whole entry partner): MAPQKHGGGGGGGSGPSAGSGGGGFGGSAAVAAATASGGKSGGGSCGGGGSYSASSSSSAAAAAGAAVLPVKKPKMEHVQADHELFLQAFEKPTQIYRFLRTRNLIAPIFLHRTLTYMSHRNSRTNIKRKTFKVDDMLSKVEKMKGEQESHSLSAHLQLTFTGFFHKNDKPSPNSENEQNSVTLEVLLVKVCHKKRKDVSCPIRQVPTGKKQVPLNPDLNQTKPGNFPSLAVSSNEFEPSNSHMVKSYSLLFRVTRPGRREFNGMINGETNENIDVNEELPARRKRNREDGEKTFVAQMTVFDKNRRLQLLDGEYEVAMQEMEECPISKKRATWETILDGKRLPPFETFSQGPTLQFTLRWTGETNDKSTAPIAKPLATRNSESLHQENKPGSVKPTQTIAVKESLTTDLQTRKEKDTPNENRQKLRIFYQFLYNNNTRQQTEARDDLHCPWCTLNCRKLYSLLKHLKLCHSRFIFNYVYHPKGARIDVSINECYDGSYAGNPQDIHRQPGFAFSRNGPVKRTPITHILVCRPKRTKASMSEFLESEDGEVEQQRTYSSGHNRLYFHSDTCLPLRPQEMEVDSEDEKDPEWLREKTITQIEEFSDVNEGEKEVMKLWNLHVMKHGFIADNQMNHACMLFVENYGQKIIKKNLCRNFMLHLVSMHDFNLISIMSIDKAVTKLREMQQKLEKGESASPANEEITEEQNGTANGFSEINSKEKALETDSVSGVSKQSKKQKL
T1 sequence (Q09028 whole entry partner): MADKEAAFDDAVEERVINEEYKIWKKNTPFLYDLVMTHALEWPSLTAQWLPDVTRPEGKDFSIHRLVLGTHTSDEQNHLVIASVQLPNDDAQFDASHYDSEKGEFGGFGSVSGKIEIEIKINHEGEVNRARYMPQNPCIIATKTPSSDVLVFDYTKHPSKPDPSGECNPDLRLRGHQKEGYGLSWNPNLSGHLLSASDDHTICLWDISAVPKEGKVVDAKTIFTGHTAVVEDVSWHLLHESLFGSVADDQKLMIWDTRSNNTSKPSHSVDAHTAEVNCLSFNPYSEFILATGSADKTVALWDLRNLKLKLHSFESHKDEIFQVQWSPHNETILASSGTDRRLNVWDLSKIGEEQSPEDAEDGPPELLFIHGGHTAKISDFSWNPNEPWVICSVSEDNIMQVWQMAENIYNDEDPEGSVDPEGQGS

K27ac: H3 peptide (18-37) acetylated at K27
effect on apparent Vmax (PRC2 [1]): did not decrease
change in PRC2 activity on titration against K27me3 peptide (PRC2 [2]; 9:1 ratio of K27ac:K27me3 peptide (FIG. 3D)): no decrease
effect on PRC2 activity relative to the no peptide control (PRC2 [2]): little stimulation
effect on PRC2 activity on titration into reactions with constant low concentration of K27me3 peptide (PRC2 [2]; constant low K27me3 peptide (FIG. 3F)): no decrease

K27me3: H3 peptide trimethylated at K27, allosteric activator of PRC2
effect on PRC2 activity towards mononucleosome or oligonucleosome templates (PRC2 [2]; 10 or 100 μM peptide (FIG. 2C)): strongly stimulated
effect on PRC2 activity relative to the no peptide control (PRC2 [2]): strongly stimulated

Lys^27 replaced by Leu: H3 peptide (18-37) containing Lys27 replaced by Leu (KQLATKAARLSAPSTGGVKK)
inhibitory effect on PRC2 in vitro (PRC2 [2]; 50 or 100 μM H3 peptide (18-37), reconstituted nucleosomes (FIGS. 5B and 5C)): no inhibitory effect

unmodified: unmodified H3 peptide (18-37)
effect on PRC2 activity relative to the no peptide control (PRC2 [2]): little stimulation
